This data set concerns the molecule itself. Nature of the data set: cryo-EM structure.

B1: SARS-CoV S glycoprotein S2 subunit (from trypsin cleavage of the S ectodomain) (domain or fragment)
chain: STSQKSIVAYTMSLGADSSIAYSNNTIAIPTNFSISITTEVMPVSMAKTSVDCNMYICGDSTECANLLLQYGSFCTQLNRALSGIAAEQDRNTREVFAQVKQMYKTPTLKYFGGFNFSQILPDPLKPTKRSFIEDLLFNKVTLADAGFMKQYGECLGDINARDLICAQKFNGLTVLPPLLTDDMIAAYTAALVSGTATAGWTFGAGAALQIPFAMQMAYRFNGIGVTQNVLYENQKQIANQFNKAISQIQESLTTTSTALGKLQDVVNQNAQALNTLVKQLSSNFGAISSVLNDILSRLDKVEAEVQIDRLITGRLQSLQTYVTQQLIRAAEIRASANLAATKMSECVLGQSKRVDFCGKGYHLMSFPQAAPHGVVFLHVTYVPSQERNFTTAPAICHEGKAYFPREGVFVFNGTSWFITQRNFFSPQIITTDNTFVSGNCDVVIGIINNTVYDPLQPELDSFKEELDKYFKNHTSPDVDLGDISGINASVVNIQKEIDRLNEVAKNLNESLIDLQELGKYEQYIKWP
Turning to B1, the “stoichiometry N” value came out at 3.

Source of the values: PMC6107290 (PLoS Pathogens, 2018).
